From PMC8578170, “Electron carriers involved in autotrophic and heterotrophic acetogenesis in the thermophilic bacterium Thermoanaerobacter kivui” (Extremophiles, 2021) come the findings set out here.

For data set [1], the target named is T1, His-MetFV (Thermoanaerobacter kivui, UniProt A0A097ATJ3).
T1 construct: gene metF; with Methylenetetrahydrofolate reductase subunit MetV
T1 sequence (A0A097ATJ3 1-291): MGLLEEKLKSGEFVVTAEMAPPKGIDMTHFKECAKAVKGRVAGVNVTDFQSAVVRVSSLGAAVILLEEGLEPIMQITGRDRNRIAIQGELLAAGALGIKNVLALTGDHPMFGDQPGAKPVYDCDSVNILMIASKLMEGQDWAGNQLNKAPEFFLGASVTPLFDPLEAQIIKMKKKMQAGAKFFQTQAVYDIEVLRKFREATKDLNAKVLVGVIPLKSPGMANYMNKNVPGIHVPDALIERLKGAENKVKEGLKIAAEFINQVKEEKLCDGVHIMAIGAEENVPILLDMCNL
T1 sequence (A0A097ATJ4 1-216 partner): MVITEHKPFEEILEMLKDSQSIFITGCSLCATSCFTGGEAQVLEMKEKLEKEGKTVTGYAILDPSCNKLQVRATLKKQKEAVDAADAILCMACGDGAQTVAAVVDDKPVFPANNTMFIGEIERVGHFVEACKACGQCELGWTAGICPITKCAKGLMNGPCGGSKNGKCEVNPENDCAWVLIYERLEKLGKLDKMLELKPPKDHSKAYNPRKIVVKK
Briefly: thin-layer chromatography of flavin released from purified complex. The format is binding. The conditions noted are these: 10 µM FMN in purification buffers unless otherwise specified.

Data set [2] has as its target T1, His-MetFV. The data set is described as follows: spectrophotometric methyl-THF:benzyl viologen oxidoreductase assay, […] nm. The format is biochemical. The conditions noted are these: 1 mM methyl-THF, 10 mM benzyl viologen; 50 mM KPi, 20 mM ascorbate, pH 7, 66 °C.
The target of data set [3] is T1, His-MetFV. Briefly: spectrophotometric reduced methyl viologen:methylene-THF oxidoreductase assay, […] nm. Type of data set: biochemical. The conditions noted are these: methylene-THF formed from 0.5 mM THF and 1.5 mM formaldehyde; 10 mM methyl viologen, dithionite; 50 mM KPi, 20 mM ascorbate, pH 7, 66 °C.
Data set [4] deals with His-HydABC, electron-bifurcating hydrogenase complex of T. kivui (Thermoanaerobacter kivui). The data set is described as follows: SEC; analytical size exclusion chromatography on a calibrated Superdex 200 column with size standards; buffer B (50 mM Tris/HCl, 150 mM NaCl, 20 mM MgSO4, 2 mM DTE, 20% glycerol, pH 7.5).
Data set [5] deals with the molecule itself. The data set is described as above.
Substrate in the data set “purified protein”: NC(=O)c1ccc[n+]([C@@H]2O[C@H](COP(=O)(O)OP(=O)(O)OC[C@H]3O[C@@H](n4cnc5c(N)ncnc54)[C@H](OP(=O)(O)O)[C@@H]3O)[C@@H](O)[C@H]2O)c1
The data set is described as follows: purified protein. The conditions noted are these: H2 and C. pasteurianum ferredoxin as co-substrates, 5 µM FMN, 50 mM EPPS, 10 mM NaCl, pH 8, 66 °C.

Substrate in data set [6]: Cc1cc2nc3c(=O)[nH]c(=O)nc-3n(C[C@H](O)[C@H](O)[C@H](O)COP(=O)(O)O)c2cc1C
The data set is described as follows: spectrophotometric H2:Fd/NADP+ oxidoreductase assay. The conditions noted are these: H2, ferredoxin and NADP+ as co-substrates, pH 8, 66 °C, FMN stimulation of activity, error exceeds the value, varied: cofactor. Type of data set: biochemical, Thermoanaerobacter kivui.

Data set [7] addresses His-HydABC, electron-bifurcating hydrogenase complex of T. kivui (Thermoanaerobacter kivui).

Take `Cc1cc2nc3c(=O)[nH]c(=O)nc-3n(C[C@H](O)[C@H](O)[C@H](O)COP(=O)(O)O)c2cc1C` [FMN]: the “thin-layer chromatography of flavin released from purified complex” value on His-MetFV [1] is reported as “subsequent separation of the flavin-containing supernatant by thin-layer chromatography (TLC), FMN could be detected”.

`CN1c2c(nc(N)[nH]c2=O)NC[C@@H]1CNc1ccc(C(=O)N[C@@H](CCC(=O)O)C(=O)O)cc1` [methyl-THF]: the “spectrophotometric methyl-THF:benzyl viologen oxidoreductase assay, 600 nm” value at His-MetFV [2] is listed as “oxidation of methyl-THF was not coupled to NAD^+, NADP^+ or Fd reduction”.

Take `Nc1nc2c(c(=O)[nH]1)N1CN(c3ccc(C(=O)N[C@@H](CCC(=O)O)C(=O)O)cc3)C[C@H]1CN2` [methylene-THF]: the “spectrophotometric reduced methyl viologen:methylene-THF oxidoreductase assay, 6” value at His-MetFV [3] is recorded as “The purified MetFV complex catalyzed the reduction of methylene-THF with reduced MV”.

In turn, “His-HydABC, electron-bifurcating hydrogenase complex of T. kivui (from UniProt A0A097ATG4 1-630; A0A097ATI0 1-170)” returned a stoichiometry N in data set [4] of 2.

B1: His-MetFV, methylene-THF reductase complex of T. kivui (complex, Thermoanaerobacter kivui)
chain 1: T1 sequence (A0A097ATJ3 1-291)
chain 2: T1 sequence (A0A097ATJ4 1-216 partner)
notes: One MetFV heterodimer; By analytical SEC the purified complex (174 kDa) is consistent with three MetFV heterodimers; It contains iron-sulfur clusters and FMN; also called MTHFR; MetFV heterodimer; source: T. kivui (DSM 2030), plasmid pMU131_His-metFV, produced homologously, purified (Ni2+-NTA, Superdex 200)
As to B1, the “stoichiometry N” value in data set [5] turned out to be 3.

B2: His-HydABC (Thermoanaerobacter kivui) (protein)
chain: MVKLKSIQELENLREKIKEAKKKEKIVIRICGGTGCRASGSLAVRDELVKVLKREGFANVDVNLSSDCLENTSEVHVKMTGCQGFCAQGPLMTIEPLGVFYVGVKPEDVEEIVEKSIKKNEIIERLLYHDPATGKTYVKRDENPFYAKQTRLVLKHCGTVDPASVYDYIAEGGYSAIAKALTMDRKQIIDEVIKSGLRGRGGAGFPTGEKWLGAYKNQSPKKYIICNGDEGDPGAFMDRSVMEGDPHKVIEGMMIGAYAIGSDEGYIYVRAEYPLAVQMLRKAIEECEKLGLLGDNILGTGFSFRLHVREGAGAFVCGESTALTYSIEGKRGMPRVRPPRTNECGLWEMPTVLNNVETFACIPEIILNGGEWFASIGTPTSTGTKIFALSGKVNRTGLVEVPMGLKLRELIFDIGGGIANNKKFKAVQLGGPSGGCVPESQLDLPIDFDSLSKAGAIMGSGGVVVVDEDTCMVDFAKFFTNFIVEESCGKCIPCREGNKKMLEILERITEGKGKEGDIELLEELGDVIISASLCGLGKTAPNPVLSTIKHFRDEYEAHIRDKKCPAGACQALAAYKIDPGKCIGCGKCVKVCPVGAISGEKKKPHVIDQSKCIKCGACAENCPKGAIYKG
notes: HydABC complex, 10xHis tag at 3' end of hydA, plasmid pMU131, produced homologously in T. kivui; Ni-NTA and Superdex 200; 348 kDa, dimer of HydABC (HydA 64, HydB 68, HydC 18 kDa); with Electron-bifurcating [FeFe] hydrogenase subunit HydA; Electron-bifurcating hydrogenase subunit HydC
On to B2, for which the values for the Michaelis constant (Km) (in the data set “purified protein”; in data set [6]) were 48.8 ± 10.6 µM and 0.3 ± 0.8 µM, respectively.

B3: ferredoxin isolated from Clostridium pasteurianum (natural protein)
chain: MAYKIADSCVSCGACASECPVNAISQGDSIFVIDADTCIDCGNCANVCPVGAPVQE
B3: the Km for Fd in the NADP+-dependent H2:Fd oxidoreductase assay (Fd 0–200 µM, 66 °C) in data set [7] amounted to 13.6 µM.
